The assay concerns the target α-Synuclein fibrils (preformed fibrils of recombinant human wild-type αSyn) (human, UniProt P37840 1-140). The experiment in a line: co-sedimentation; as a4 with a range of peptide concentrations (0–200 μM) and αSyn fibrils (100 μM); bound peptide by reversed phase chromatography. Particulars: both partners purified.

A value given as a limit tells only on which side of the number the result lay.

B1: Hsc-10 (Hsc70-derived peptide) (peptide)
peptide: GILNVSAVDKSTGKENKITITN
notes: Hsc70 residues 484–505; source: synthetic peptide; bought: GL Biochem Ltd
By Kd is commonly meant the constant that tells how readily two partners part at equilibrium. Turning to B1, the Kd is more than 100 µM.

B2: Hsc-6 (Hsc70-derived peptide) (peptide)
peptide: TKQTQTFTTYSDNQPGVLIQVYE
notes: Hsc70 residues 422–444; source: synthetic peptide; bought: GL Biochem Ltd
Take B2: the Kd was more than 100 µM.

The values above are taken from PMC7425896, “Polypeptides derived from α-Synuclein binding partners to prevent α-Synuclein fibrils interaction with and take-up by cells” (PLoS ONE, 2020).
